2 molecules from US20240190962A1 (IMMUNOWAKE, published 2024) can be followed below.

In assay [1] the target is T1, human IL-2 receptor (IL-2Rα, IL-2Rβ, IL-2Rγ) (human, UniProt P01589 22-272; P14784 27-551; P31785 23-369).
T1 sequence (looked up) 1: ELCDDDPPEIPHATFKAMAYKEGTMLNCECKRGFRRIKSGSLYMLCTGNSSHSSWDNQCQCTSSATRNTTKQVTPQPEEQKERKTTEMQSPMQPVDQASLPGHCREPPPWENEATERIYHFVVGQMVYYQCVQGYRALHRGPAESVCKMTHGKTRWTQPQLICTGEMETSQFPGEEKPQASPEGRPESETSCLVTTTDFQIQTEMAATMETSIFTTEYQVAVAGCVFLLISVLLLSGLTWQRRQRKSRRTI
T1 sequence (looked up) 2: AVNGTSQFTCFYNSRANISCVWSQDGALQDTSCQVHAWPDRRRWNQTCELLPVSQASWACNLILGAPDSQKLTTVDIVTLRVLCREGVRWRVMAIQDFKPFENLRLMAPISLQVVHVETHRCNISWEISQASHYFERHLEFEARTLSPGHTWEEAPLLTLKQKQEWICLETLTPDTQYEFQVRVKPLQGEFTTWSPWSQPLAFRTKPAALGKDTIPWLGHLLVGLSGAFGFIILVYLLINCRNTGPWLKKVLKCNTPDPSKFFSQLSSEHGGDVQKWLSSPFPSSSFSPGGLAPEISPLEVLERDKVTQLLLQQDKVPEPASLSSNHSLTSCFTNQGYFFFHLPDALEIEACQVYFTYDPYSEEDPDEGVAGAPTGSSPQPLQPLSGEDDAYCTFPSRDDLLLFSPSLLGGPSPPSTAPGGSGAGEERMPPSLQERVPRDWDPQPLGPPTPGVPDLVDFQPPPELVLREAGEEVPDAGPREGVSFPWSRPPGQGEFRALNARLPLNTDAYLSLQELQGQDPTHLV
T1 sequence (looked up) 3: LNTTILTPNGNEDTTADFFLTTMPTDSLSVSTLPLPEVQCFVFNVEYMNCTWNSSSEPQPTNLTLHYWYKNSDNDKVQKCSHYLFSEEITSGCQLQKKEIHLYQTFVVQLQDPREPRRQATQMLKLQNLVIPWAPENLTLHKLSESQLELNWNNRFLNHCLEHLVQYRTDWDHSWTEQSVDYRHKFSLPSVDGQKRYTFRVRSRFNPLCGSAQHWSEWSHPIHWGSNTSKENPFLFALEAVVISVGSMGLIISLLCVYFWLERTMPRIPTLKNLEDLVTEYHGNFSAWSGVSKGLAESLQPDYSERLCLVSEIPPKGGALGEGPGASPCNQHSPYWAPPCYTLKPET
Briefly: cell-based or functional assay.

Assay [2] concerns the target T2, human PD-1 on HEK-PD-1-IL-2 cells (human, UniProt Q15116 25-288).
T2 construct: whole, on cells
Briefly: FACS on HEK-PD-1-IL-2 cells.

A further assay concerns the target T3, human PD-1 (human, UniProt Q15116 25-167, limits assumed).
T3 construct: also called hPD-1
Briefly: PD-L1-Fc format, calibrated on PD-L1(wt)-Fc.

A further assay has as its target T4, mouse PD-1 (mouse, UniProt Q02242 25-167, limits assumed).
T4 construct: also called mPD-1
T4 sequence (looked up): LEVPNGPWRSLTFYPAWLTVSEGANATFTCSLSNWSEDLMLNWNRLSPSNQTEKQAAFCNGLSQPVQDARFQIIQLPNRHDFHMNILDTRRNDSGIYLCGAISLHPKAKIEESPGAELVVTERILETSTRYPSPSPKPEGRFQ
In words: PD-L1-Fc format, calibrated on PD-L1(wt)-Fc.

T2 sequence (Q15116 25-288): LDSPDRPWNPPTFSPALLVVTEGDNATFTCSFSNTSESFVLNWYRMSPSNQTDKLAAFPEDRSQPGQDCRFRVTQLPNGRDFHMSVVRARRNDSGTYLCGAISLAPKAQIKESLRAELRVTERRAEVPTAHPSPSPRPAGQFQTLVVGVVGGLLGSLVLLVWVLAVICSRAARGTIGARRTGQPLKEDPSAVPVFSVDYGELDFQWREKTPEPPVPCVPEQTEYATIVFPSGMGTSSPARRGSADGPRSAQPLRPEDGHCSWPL
T3 sequence (Q15116 25-167 limits assumed): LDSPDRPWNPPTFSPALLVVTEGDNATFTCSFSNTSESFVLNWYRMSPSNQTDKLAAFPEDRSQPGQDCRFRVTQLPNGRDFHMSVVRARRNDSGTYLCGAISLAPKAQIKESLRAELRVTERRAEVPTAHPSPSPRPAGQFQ

B1: ligand-IL-2 mutant-PD-L2-Fc (Fc fusion)
chain 1: LFTVTVPKELYIIEHGSNVTLECNFDTGSHVNLGAITASLQKVENDTSPHRERATLLEEQLPLGKASFHIPQVQVRDEGQYQCIIIYGVAWDYKYLTLKVKASYRKINTHILKVPETDEVELTCQATGYPLAEVSWPNVSVPANTSHSRTPEGLYQVTSVLRLKPPPGRNFSCVFWNTHVRELTLASIDLQSQMEPRTHPTGGGGSAPTSSSTKKTQLQLEHLLLDLQMILNGINNYKNPKLTDMLTFEFYMPKKATELKHLQCLERELKPLEEVLNLAQSKNFHLRPRDLISNINVIVLELKGSETTFMCEYADETATIVEFLNRWITFCQSIISTLTDKTHTCPPCPAPEDEGGPSVFLFPPKPKDTLMISRTPEVTCVVVDVSHEDPEVKFNWYVDGVEVHNAKTKPREEQYNSTYRVVSVLTVLHQDWLNGKEYKCKVSNKALPAPIEKTISKAKGQPREPQVYVYPPSREEMTKNQVSLTCLVKGFYPSDIAVEWESNGQPENNYKTTPPVLDEDGSFALVSKLTVDKSRWQQGNVFSCSVMHEALHNHYTQKSLSLSPGK
chain 2: LFTVTVPKELYIIEHGSNVTLECNFDTGSHVNLGAITASLQKVENDTSPHRERATLLEEQLPLGKASFHIPQVQVRDEGQYQCIIIYGVAWDYKYLTLKVKASYRKINTHILKVPETDEVELTCQATGYPLAEVSWPNVSVPANTSHSRTPEGLYQVTSVLRLKPPPGRNFSCVFWNTHVRELTLASIDLQSQMEPRTHPTGGGGSDKTHTCPPCPAPEKKGGPSVFLFPPKPKDTLMISRTPEVTCVVVDVSHEDPEVKFNWYVDGVEVHNAKTKPREEQYNSTYRVVSVLTVLHQDWLNGKEYKCKVSNKALPAPIEKTISKAKGQPREPQVYVLPPSREEMTKNQVSLLCLVKGFYPSDIAVEWESNGQPENRYMTWPPVLDSDGSFFLYSKLTVDKSRWQQGNVFSCSVMHEALHNHYTQKSLSLSPGK
notes: also called IL-2(R38D/K43E/E61R)/PD-L2-Fc immunocytokine; construct #11
With B1, in assay [1], the “Percent IL-2 signal transduction (HEK-IL-2 reporter assay)” value turned out to be 2.4% and the “Percent IL-2 signal transduction (HEK-PD-1-IL-2 reporter assay)” value is 43.5%. Moreover, in assay [2], the binding result is given as “binds”.

B2: PD-L1(mut7)-Fc (Fc fusion)
chain 1: FTVTVPKDLYVVEYGSNMTIECKFPVEKQLDLAALQVYWMMEDKNIIQFVHGEEDLKVQHSSYRQRARLLKDQLSLGNAALQITDVKLQDAGVYTCLIAYGGADYKRITVKVNAPYNKINQRILVVDPVTSEHELTCQAEGYPKAEVIWTSSDHQVLSGKTTTTNSKREEKLFNVTSTLRINTTTNEIFYCTFRRLDPEENHTAELVIPELPLAHPPNERGGGGSGGGDKTHTCPPCPAPEDEGGPSVFLFPPKPKDTLMISRTPEVTCVVVDVSHEDPEVKFNWYVDGVEVHNAKTKPREEQYNSTYRVVSVLTVLHQDWLNGKEYKCKVSNKALPAPIEKTISKAKGQPREPQVYVYPPSREEMTKNQVSLTCLVKGFYPSDIAVEWESNGQPENNYKTTPPVLDEDGSFALVSKLTVDKSRWQQGNVFSCSVMHEALHNHYTQKSLSLSPGK
chain 2: FTVTVPKDLYVVEYGSNMTIECKFPVEKQLDLAALQVYWMMEDKNIIQFVHGEEDLKVQHSSYRQRARLLKDQLSLGNAALQITDVKLQDAGVYTCLIAYGGADYKRITVKVNAPYNKINQRILVVDPVTSEHELTCQAEGYPKAEVIWTSSDHQVLSGKTTTTNSKREEKLFNVTSTLRINTTTNEIFYCTFRRLDPEENHTAELVIPELPLAHPPNERGGGGSGGGDKTHTCPPCPAPEKKGGPSVFLFPPKPKDTLMISRTPEVTCVVVDVSHEDPEVKFNWYVDGVEVHNAKTKPREEQYNSTYRVVSVLTVLHQDWLNGKEYKCKVSNKALPAPIEKTISKAKGQPREPQVYVLPPSREEMTKNQVSLLCLVKGFYPSDIAVEWESNGQPENRYMTWPPVLDSDGSFFLYSKLTVDKSRWQQGNVFSCSVMHEALHNHYTQKSLSLSPGK
notes: also called PD-L1(I54Q/E58M/R113T/M115L/S117A)
With B2, the equilibrium dissociation constant (Kd) was 98 nM in the assay with human PD-1 and 110 nM in the assay with mouse PD-1.

One may read the Kd as the free concentration of one partner at which half of the binding sites on the other are occupied at equilibrium, for simple one-to-one binding. Low readings indicate higher affinity, high ones lower affinity.
